Earlier results on one substance are cited in paper PMC8654464.

This data set deals with SARS-CoV-2 spike protein RBD (Severe acute respiratory syndrome coronavirus 2) (UniProt P0DTC2).

Broadly, the Kd is the constant that tells how readily two partners part at equilibrium. For the substance regdanvimab, the Kd is 0.065 nM.
